# Assay: yeast display, Sf9 membrane polyspecificity reagent, FACS + sequencing; frameworks hold sequencing errors
# Procedure, shortened: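 Genes from sorted yeast were amplified by colony PCR, read by MiSeq 2 × 250 sequencing and filtered on CDR length. These cells carried a synthetic nanobody library in Saccharomyces cerevisiae BJ5465 and were sorted by FACS into low and high (top ~1%) gates on anti-HA and streptavidin fluorescence. Polyreactivity is labelled according to the gate of origin.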
row,Sequence,polyreactivity (PSR sort gate)
1,QVQLVESGGGIVQAGGSLRLSCAASGSIFQWYAMGWYRQAPGKERELVAAISFNGGITYYADSVKGRFTISRDNANNTVYLQMNSLKPEDTAVYYCATEYRSASGDYDYWGQGTQVTVSS,low polyreactivity
2,QVQLVESGGGIVQAGGSLRLSCAASGSIFSGYAMGWYRQAPGKERELVAAIDWSGGTTYYADSVKGRFTISRDNAKNTVYLQMKSLKPEDTAVYYCAAKYPWYLSKDTLYYWGQGTQVTVSS,low polyreactivity
3,QVQLVESGGGIVQAGGSLRLSCAASGSIFWVNVMGWYRQAPGKEREFVAAITRSGGSTYYADSVKGRFTISRDNAKNTVYLQMNSLKPEDTAVYYCNRRGRRGYDYWGQGTLVTVSS,high polyreactivity
4,QVQLVESGGGIVQAGGSLRLSCAASGSILYFNAMGWYRQAPGKERELVAAISRTGSRTYYADSVKGRFTISRDNAKNTVYLQMNSLKPEDTAVYYCAAYNGITSHLRFDYWGQGTQVTVSS,high polyreactivity
5,QVQLVESGGGIVQAGGSLRLSCAASGSTFDVYAMGWYRQAPGKERELVAVINTSGTRTYYADSVKGRFTISRDNAKNTVYLQMNSLKPEDTAVYYCAVSYLSTLGRSRYDYWGQGTQVTVSS,low polyreactivity
6,QVQLVESGGGIVQAGGSLRLSCAASGSTFFDNAIGWYRQAPGKERELVAAITRGGSKHYADSVMGRFTISRDNAKNTVYLQMNSVKPEDTAVYSCNAQRYRVPYDYWGQGTQVTVSS,low polyreactivity
7,QVQLVESGGGIVQAGGSLRLSCAASGSTFFDNAMGWYRQAPGKERDLVAAISLTDGITYDADSVKGRFTISRDNAKNTVYLQMNSLKPEDTAVYYCNAVYDWSLDQVWDYFEYEYWGQGSQVTVSS,high polyreactivity
8,QVQLVESGGGIVQAGGSLRLSCAASGSTFSYNAMGWDRQAPGKERELVAAITSRGGSTRYADSVKGRFTISRDNAKNTVYLQMNSLKPEDTAVYYCARPYSYYPYSTVNYWGQGTQVTVSS,high polyreactivity
9,QVQLVESGGGIVQAGGSLRLSCAASGSTFYRYVMGWYRQAPGKERELVAAISWSGGSTYYADSVKGRFTISRDNAKNTVYLQMNSLKPEDTAVYYCAAVHKVGWSRHYDYWGQGTQVTVSS,high polyreactivity
10,QVQLVESGGGIVQAGGSLRLSCAASGSTIDYNAMGWYRQARGQERELVAAITSGGSTSYADSVKGRFTISRENAKNTVYLQMNSLKPEDTAGYYCAVKRYWLWWYDYWGQGTQVTVSS,high polyreactivity
11,QVQLVESGGGIVQAGGSLRLSCAASGTFGYAMGWYRQAPGKERELVAAISYSGGSTYYADSVKGRFTISRDNAKNTVYLQMNSLKPEDTAVYYCAARTTLSYGYDYWGQGTQVTVSS,high polyreactivity
12,QVQLVESGGGIVQAGGSLRLSCADSGITFKYYAMGWYRQAPGKERQWVAAISRSGGSTYYADSVKGRFTISRDNAKNTVYLQMNSLIAEDTAVYYCNAELYSVYLGFGYWGQGTQVTVSS,high polyreactivity
13,QVQLVESGGGIVQAGGSLRLSCADSGRTFGYYGMGWYRQAPGKERELVASINFSSGSTFYADSVKGRFTISRDNAKNTVYLQMNSLKPEDTAVYYCAGRAKAVRTYAYNYWGQGTQVTVSS,low polyreactivity
14,QVQLVESGGGIVQAGGSLRLSCADSGSTFRDNAMGLYRQAPGKERELVAAITVIDGTTYYADSVKGRFTISRDNAKNTVYLQMNSLKPEDTAVYYCAADTIWYEYYYWGQGTQVTVSS,low polyreactivity
15,QVQLVESGGGIVQAGGSLRLSCPASGRIFGPNAMGGYRQAPGKERELVAVISRRGTSTYYADSVKGRFTISRDNAKNTVYLQMNRLKPEDTAVYYCAAGGHYLYDYWGQGTQVTVSS,high polyreactivity
16,QVQLVESGGGIVQAGGSLRLSSAASGFTFDSNAMGWYRQPPGKERELVAAISASGDSTYYADSVKGRFTISRDNAKNTVYLQMNSLKPEDTAVYYCAADSYYGGWRFDHWGQGTQVTVSS,low polyreactivity
17,QVQLVESGGGIVQAGGSLRLTCAASGRIFRSYAMGWYRQAPGKERELVATITWSGTSTYADSVKGRFTISRDNAKNTVYLQMNSLKPEDTAVYYCAAVALFPKYRYYSWGQGTQVTVSS,high polyreactivity
18,QVQLVESGGGIVQAGGSLRLTCAASGRTYTPYAMGWYRQAPGKERELVAAIDTSGGSTYADSVKGRFTISRDNAKNTVYLQMNSLKPEDTAVYYCATRGFYSWDYWYLWEYDYWGQGTQVTVSS,low polyreactivity
19,QVQLVESGGGIVQAGGSLSLSCAASGFIIPSYTMGWYRQAPGKERDLVAGITQRGGSTYYADSVKGRFTISRDNAKNTVYLQMNSLNPEDTAVYYCARGISRGRSFGIGYDYWGQGTQVTLSS,low polyreactivity
20,QVQLVESGGGIVQAGGSLSLSCAASGSTFYSYDMVWYRPAPGKERELVAAISWEGGRPYYADSVKGRFTISRDNAKNNVYLQMNSLKPEDTAVYYCADAYPTYRHYYWGQGTQVSVSS,low polyreactivity
21,QVQLVESGGGIVQAGGSLSLSCRACGRSFAFYSMGWYRQEPGKERELVAAITRTGSTSYADSVNGRFTISRDNAKNTVYLQMNSLKPEDTAVYYCATVGYPYTLWHQMVYWGQGTQVTVSS,low polyreactivity
22,QVQLVESGGGIVQAGRSLRLSCAASGNTFYLYAMGWYRQAPGKERELVATITSGGRTTYADSVKGRFTISRDNAKNTVYLQMNSLKPEDTAVYYCAARRVQYYGWGGMEYWGQGTQVTVSS,high polyreactivity

row,Sequence,polyreactivity (PSR sort gate)
1,QVQLVESGGGIVQAGRSLRLSCAASGRTFYYYVMGWYRQAPGKERELVAAISRGGRTYYADSVKGRFTISRDNAKNTVYLQMNSLKPEDTAVYYCNAVPRKSRHRYDYWGQGSQVTVSS,high polyreactivity
2,QVQLVESGGGIVQAGVSLRLSCAASGGTLCTYAMGWYRQAPGKERELVASIDSGDSTYYADSVKGRFTISRDNAKNTVYLQMNSLKPEDTAVYYCAAAYFRRYTTTWYGYEYWGQGTQVTVSS,low polyreactivity
3,QVQLVESGGGIVQARGSLRLSSAASGNIFRINGMGWSRQERGKERELVASITRSGSTYYADSVKGRFTISRDNAKNTVYLQMNILKPEDTAVYYCAADSSSYGVRFDYWGQGTQVTVSS,low polyreactivity
4,QVQLVESGGGIVQVGRSLPISSAAYGRTFVYYAMGWYRQAPGKERELVARISRSGGRTFYADSVKGRFTISRDNAKNTVYLVLYSQKPEDTAVYYCNSSDVHVTTYGYWGQGTQVSVSS,low polyreactivity
5,QVQLVESGGGKVQAGGSLRLSCAASGLTFSRYAMGWYRQAPGKERELVAAISGRGASTSYADSVKGRFTISRDNAKNTVYLQMNSLKPEDTAVYYCAAQKYYHSYLNRHYYWGQGTQVTVSS,high polyreactivity
6,QVQLVESGGGKVQAGGSLRLSCAASGRIFPEYAMGWYRQAPGKERELVAAISSGDNTTYADSVKGRFTISRDNAKNTVYLQMNSLKPEDTAVYYCNAGSGTTGQGGPIIEYGYWGQGTQVTVSS,low polyreactivity
7,QVQLVESGGGKVQAGGSLRLSCAASGRILHEYAMGWYRQAPGKERELVAAITFSGTSTYYADSVKGRFTISRDNAKNTVYLQMYSLKPEDTAVYYCAADTYGGSRDYWGQGTQVTVSS,low polyreactivity
8,QVQLVESGGGKVQAGGSLRLSCAASGYTFKYYTMGWYRQAPGKERELLAAITRSGGSTYYADSVKGRFTISRDTAKNTVYLQMNSLKPEDTAFYYCAARASYKQPVSFDYWGQGTQVTVSS,high polyreactivity
9,QVQLVESGGGLDHAGGSLRLSCAASGRTFLGYAMGWYRQAPGKERELVAAISSSGGSTYYADSVKGLFTISRDNAKNTVYLQTNSLKPEDTAVYYCAKRKPATCASGHRFGYWGQGTQVTVSS,high polyreactivity
10,QVQLVESGGGLDLAGGSLRLSCASSGLTFFYYAMAWYRQAPGKEMEFVASISRSGGSTYYADSVKGRFTISRDNAKNTVSLQKNSLKPEDTAVYYCAAVERRTPGYGYDYWGQGTQVTVSS,high polyreactivity
11,QVQLVESGGGLDQAGCSLRLSCAASGRIFYVYDMGWYRQAPGKERELVATITSSGDGTYYADSVKGRFTSSRDNAKNTVYLQMNSLKPEDTAVYYCARRYFVRFVNPPYYYWGHGTQVTVSS,low polyreactivity
12,QVQLVESGGGLDQAGGRLRLSCAASGRTFVYYAMGWYRQAPGKERELVATITRGGRTNYADSVKGRFTISRDNAKNTVYLQMNSLKPEDTAVYYCNARYSWWRSRVGSSHRPDGYWGQGTQVTVSS,high polyreactivity
13,QVQLVESGGGLDQAGGRLRLSCAASGRTYSVKSMGWYRQAPGKERELVAAITSGGSTYYADSVKGRFTISRDNAKNTVYLQMNSLKPEDTAVYYCNAVGRLRRSRLRMDYWGQGTQVTVSS,high polyreactivity
14,QVQLVESGGGLDQAGGRLRLSCAAYGSTFELYAMGWYRQAPGKERELVASITGDSTNYADSVKGRFTISRDNAKNTVYLQMNSLKPEDTAVYYCAAEYVPYYEYESWGQGTQVTVSS,low polyreactivity
15,QVQLVESGGGLDQAGGSIRLSCAASGGTFKANAMGWYRQAPGKEREVVAAIRQTGGSTYYADSVKGRFTISRDNEKNTVYLQMNSLKPEDTAVYYCAAQSHRYWIYDYWGQCTQVTVSS,high polyreactivity
16,QVQLVESGGGLDQAGGSLPLSCAASGFTFGHYAMGWYRQAPGKERELVAAISSGDRTYYADSVKGRFTISRDNAKNTVYLQMNSLKPEDTAVYYCAADGIYTYEYWGQGTQVTVSS,low polyreactivity
17,QVQLVESGGGLDQAGGSLRLICDAYGSTFNWNAMGWYRQAPGKERELVAAISSGGSTNYADSVKGRFTISRDNAKNTVYLQMNSLKPEDTAVYYCARQHSRWYSGYKYNYWGQGTQVTVSS,high polyreactivity
18,QVQLVESGGGLDQAGGSLRLIFAASGRTFYRYAMGLYRQAPGKERELVAAISVRGGSTYYADSVKGRFTISRDNAKNTVYLQMNSLKPEDTAVYYCDAEYVAPWYIGLEVTRLIYWGQGTQVTVSS,high polyreactivity
19,QVQLVESGGGLDQAGGSLRLISAASGLTLRRYAMGWYRQAPGKERELVASINTGTSTKYADSVKGRFTISRDNAKNTDYLQLNSLKPEDTAFYYCAARPAAQGYGYWGQGTQVTVSS,high polyreactivity
20,QVQLVESGGGLDQAGGSLRLSCAASGFIFGVSVMGWYRPAPGKERELVAAMSGRGGSTFYADSVKGRFTISRDNAKNTVYLQMNSLKPEDTAVYYCAAKSTGPSMDYWGQGTQVTVSS,high polyreactivity
21,QVQLVESGGGLDQAGGSLRLSCAASGFIFQRYTLGWYRQAPGKERELVAAITSGGRTYYADSVKGRFTISRDNAKNTVYLQMNSLKPEDTAVYYCNARGRASRHSGYDYWGQGTQVTVSS,high polyreactivity

# — the nanobody polyreactivity screen of Harvey et al. (2022)
